From US10005838B2, “Milk fat globule epidermal growth factor 8 regulates fatty acid uptake” (REGENTS OF THE UNIVERSITY OF CALIFORNIA, priority 2013, dated 2018)

Test: Activity of Mfge8 sequence lacking the second discoidin domain (test not named at the place)
Conditions: mouse Mfge8 lacking the second discoidin domain

B1: SEQ ID NO:4: mouse Mfge8 sequence lacking the second discoidan domain but including all other native sequence (protein)
chain: MQVSRVLAALCGMLLCASGLFAASGDFCDSSLCLNGGTCLTGQDNDIYCLCPEGFTGLVCNETERGPCSPNPCYNDAKCLVTLDTQRGDIFTEYICQCPVGYSGIHCETETNYYNLDGEYMFTTAVPNTAVPTPAPTPDLSNNLASRCSTQLGMEGGAIADSQISASSVYMGFMGLQRWGPELARLYRTGIVNAWTASNYDSKPWIQVNLLRKMRVSGVMTQGASRAGRAEYLKTFKVAYSLDGRKFEFIQDESGGDKEFLGNLDNNSLKVNMFNPTLEAQYIKLYPVSCHRGCTLRFELLGCKPFMARYVRVLPVSWHNRITLRLELLGC
modifications: synthetic E1E2D1 mouse milk fat globule epidermal growth factor 8 (Mfge8) long construct (lacking second discoidin domain)
activity of the Mfge8 fragment: remains active
